These are literature values, as cited in paper PMC8073936.

This data set deals with TRF1 (Homo sapiens) (UniProt P54274).
Chain of UniProt P54274 (P54274 2-439): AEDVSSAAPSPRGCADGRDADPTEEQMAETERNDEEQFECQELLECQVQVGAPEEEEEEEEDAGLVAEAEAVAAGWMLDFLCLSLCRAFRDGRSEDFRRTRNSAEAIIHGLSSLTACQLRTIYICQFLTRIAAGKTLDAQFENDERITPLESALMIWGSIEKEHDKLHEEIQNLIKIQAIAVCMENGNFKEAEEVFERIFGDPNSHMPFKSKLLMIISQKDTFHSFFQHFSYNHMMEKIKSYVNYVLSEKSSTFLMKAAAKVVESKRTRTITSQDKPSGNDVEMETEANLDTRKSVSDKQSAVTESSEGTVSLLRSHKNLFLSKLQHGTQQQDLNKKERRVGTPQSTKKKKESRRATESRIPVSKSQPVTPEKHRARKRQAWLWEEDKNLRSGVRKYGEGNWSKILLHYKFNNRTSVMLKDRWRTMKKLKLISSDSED

A word on the Kd: it is the constant that tells how readily two partners part at equilibrium. Take Ku70/80 (from UniProt P12956): the Kd was 0.4 nM.
